The values that follow come from US20250186633A1, “METHODS FOR IMAGING INTEGRIN EXPRESSION AND FOR IMAGING SITES OF ENDOMETRIOSIS” (SERAC HEALTHCARE LTD, priority 2022, published 2025).

Data set [1] deals with endometrial lesion. The note with it: mouse, in vivo. An excerpt: (§1) A rat surgical model of endometriosis was used, together with immunocompromised mouse and isogenic mouse models—all 3 animal models of endometriosis are as described by Story, L. ILAR J., 45(2) 132-138 (2004).
(§2) The uptake of ^99mTc-maraciclatide was compared with that of ^99mTc-[…]. NC100667 is described by Edwards et al [D. Edwards, Nucl.Med.Biol., 35, 365-375 (2008)]. NC100667 is a negative control peptide, in which the arginine residue of the RGD binding motif of maraciclatide (NC100692) was replaced with an alanine residue. Thus, only one amino acid residue was changed—all other aspects of the agent were otherwise the same.

The test system of data set [2] is endometrial lesions. The note with it: rat, in vivo.
Text: as §1, §2

In data set [3] the test system is endometriosis lesions. More on the design: species or system rat, mouse. The note with it: in vivo.
Text: as §1, §2

Starred links: 1 amine or outer side, 2 acyl side, 3 side chain; linkers in the order of their positions; H or OH if unused. Positions of bridges follow the written chain, without caps; N, C: chain ends. Residues, ends and D or L forms follow the SMILES beside them. Groups on a side chain read outwards from the residue. *: point of attachment. X1 = C/C(=N/O)C(C)(C)NCCC(CCNC(C)(C)/C(C)=N\O)CCN*; Glutaryl = O=C(CCCC(=O)[*:2])[*:1]; X2 = NC(=O)COCC(=O)NCCOCCOCCOCCN*

Turning to `C/C(=N/O)C(C)(C)NCCC(CCNC(=O)CCCC(=O)NCCCC[C@@H]1NC(=O)CSC[C@@H](C(=O)NCCOCCOCCOCCNC(=O)COCC(N)=O)NC(=O)[C@H](Cc2ccccc2)NC(=O)[C@@H]2CSSC[C@H](NC1=O)C(=O)N[C@@H](CCCNC(=N)N)C(=O)NCC(=O)N[C@@H](CC(=O)O)C(=O)N2)CCNC(C)(C)/C(C)=N\O` (stereo partly drawn) [^99mTc-maraciclatide, metal not drawn] ({CH2CO}-K([Glutaryl-X1])CRGDCFC-X2; disulfide 2-6; thioether N-8), in data set [1], the “ratio of endometriotic lesion to blood” value amounted to 4.0; the “ratio of endometriotic lesion to muscle” value was found to be 8.3; the “retention in ovaries and uterine horns” value is around 35%; the “uptake in endometrial lesion, time course at 1, 2 or 3 weeks post implantation” value is “greatest at one week post uterine horn inoculation”. Also, the “uptake in endometrial lesions versus control lesions of abdominal fat” value in data set [2] is listed as “higher compared to control lesions of abdominal fat”. In data set [3], the “uptake and retention in animal models of endometriosis” value is recorded as “demonstrated in all experimental animal models of endometriosis”.
